# Reference: patent US20260069656A1, “Nutritive Polypeptides and Formulations Thereof, and Methods of Production and Use Thereof” (Axcella Health Inc., priority 2013, published 2026)
# Substitutions are numbered along the chain they refer to.
# B1: SEQID-00220: nutritive polypeptide (protein, listed as Bos taurus)
# chain: DTKKKVDDDLGTIENLEEAKKKLLKDVEVLSQRLEEKALAYDKLEKTKTRLQQELDDLLVDLDHQ
# B2: SEQID-00420: nutritive polypeptide (protein)
# chain: AAAPLEKRSCTFTSASAAKSGKSSCSTITLDNIAVPAGETLDLTGLKKGTTVIFEGETTFGYKEWKGPLISMSGTDITVKQASGAKINCDGARWWDGKGSNGGKTKPKFFQAHKLDQSSITGLKVYNTPVQGFSILADHLTITDVTIDNSAGTSKGHNTDAFDIGQSTYITIDGATVYNQDDCLAINSGEHITFTNGYCDGGHGLSIGSIGGRSDNTVNDVTISNSKVLNSQNGVRIKTIYGKTGTVENVKFEDITLSDISKYGIVVEQDYENGSPTGTPTNGVKVEDITFKKVTGSVKSSGTDIYILCGSGSCSNWTWSGVDVTGGKKSSKCKNVPSGASCSD
# modifications: Aspergillus niger; strain CBS 513.88 / FGSC A1513
# B3: SEQID-00098: nutritive polypeptide (protein, listed as Lactococcus lactis)
# chain: MAVFEKVQDIIVDELGKEKEEVTLETSFEELDADSLDLFQIINDIEDEFDVEVDTEADMKTVADLVKYVENNK
# B4: SEQID-00546: protein of the 168 nutritive polypeptide library (protein, listed as Saccharomyces cerevisiae)
# chain: MCSAGGIRRPIQIEEFKTAISGMSDMELAQIKTEIENSINHLQRSNARLGKYIAKLEGADDRLEADDSDDLENIDSGDLALYKDSVRENEIVLNNYNERVDALEQETVYRKTGHGKSKHEVEAKDNTNKGPDVDMDNSNVDVVTPNSIFI
# modifications: strain ATCC 204508 / S288c
# B5: SEQID-00001: nutritive polypeptide (protein, listed as Gallus gallus)
# chain: MGSIGAASMEFCFDVFKELKVHHANENIFYCPIAIMSALAMVYLGAKDSTRTQINKVVRFDKLPGFGDSIEAQCGTSVNVHSSLRDILNQITKPNDVYSFSLASRLYAEERYPILPEYLQCVKELYRGGLEPINFQTAADQARELINSWVESQTNGIIRNVLQPSSVDSQTAMVLVNAIVFKGLWEKAFKDEDTQAMPFRVTEQESKPVQMMYQIGLFRVASMASEKMKILELPFASGTMSMLVLLPDEVSGLEQLESIINFEKLTEWTSSNVMEERKIKVYLPRMKMEEKYNLTSVLMAMGITDVFSSSANLSGISSAESLKISQAVHAAHAEINEAGREVVGSAEAGVDAASVSEEFRADHPFLFCIKHIATNAVLFFGRCVSP
# B6: SEQID-00001 (HEK293): nutritive polypeptide (protein, listed as Gallus gallus)
# chain: B5 chain
# modifications: expressed in HEK293
# B7: SEQID-00690: engineered secreted variant of SEQID-00407 enriched in essential amino acids which retains enzymatic activity (protein, listed as Bacillus subtilis)
# chain: ETANKSNELTAPSIKSGTILHAWNWSFNTLKHNMKDIHDAGYTAIQTSPINQVKEGNQGDKSMSNWYWLYQPTSYQIGNRYLGTEQEFKEMCAAAEEYGIKVIVDAVINHTTSDLVGVLSNEVKSIPNWTHGNTQIKNWSDRWDVTQNSLLGLYDWNTQNTQVQSYLKRFLDRALNDGADGFRFDAAKHIELPDDGSYGSQFWPNITRVVMEFQYGEILQDSASRDAAYANYMDVTASNYGHSIRSALKNRNLGVSNIVMYILRVSADKLVTWVESHDTYANDDEESTWMSDDDIRLGWAVIASRSGSTPLFFSRPEGGGNGVRFPGKSQIGDRGSALFEDQAITAVNRFHNVMAGLPKRLSNPNGNNQIFMNQRGSHGVVLANAGSSSVSINTATKLPDGRYDNKAGAGSFQVNDGKLTGTINARSVAVLYPDDIAKAPHVFLENYKTGVTHSFNDQLTITMRADANTTKAVYQINNGPETAFKDGDQFTIGKGDPFGKTYTIMLKGTNSDGVTRTEKYSFVKRDPASAKTIGYQNPNHWSQVNAYIYKHDGSRVIELTGSWPGKPMTKNADGIYTLTLPADTDTTNAKVIFNNGSAQVPGQNQPGFDYVLNGLYNDSGLSGSLPH
# modifications: strain 168
# B8: SEQID-00672 (BS): nutritive polypeptide (protein, listed as Saccharomyces cerevisiae)
# chain: MSSSESIRMVLIGPPGAGKGTQAPNLQERFHAAHLATGDMLRSQIAKGTQLGLEAKKIMDQGGLVSDDIMVNMIKDELTNNPACKNGFILDGFPRTIPQAEKLDQMLKEQGTPLEKAIELKVDDELLVARITGRLIHPASGRSYHKIFNPPKEDMKDDVTGEALVQRSDDNADALKKRLAAYHAQTEPIVDFYKKTGIWAGVDASQPPATVWADILNKLGKD
# modifications: strain ATCC 204508 / S288c
# B9: SEQID-00678 (BS): nutritive polypeptide (protein, listed as Saccharomyces cerevisiae)
# chain: B8 chain with R42K
# modifications: strain ATCC 204508 / S288c
# B10: SEQID-00418: nutritive polypeptide (protein)
# chain: VPRVRRQGASSSFDYKSQIVRGVNLGGWLVTEPWITPSLYDSTGGGAVDEWTLCQILGKDEAQAKLSSHWSSFITQSDFDRMAQAGLNHVRIPIGYWAVAPIDGEPYVSGQIDYLDQAVTWARAAGLKVLVDLHGAPGSQNGFDNSGHRGPIQWQQGDTVNQTMTAFDALARRYAQSDTVTAIEAVNEPNIPGGVNEDGLKNYYYGALADVQRLNPSTTLFMSDGFQPVESWNGFMQGSNVVMDTHHYQVFDTGLLSMSIDDHVKTACSLATQHTMQSDKPVVVGEWTGALTDCAKYLNGVGNAARYDGTYMSTTKYGDCTGKSTGSVADFSADEKANTRRYIEAQLEAYEMKSGWLFWTWKTEGAPGWDMQDLLANQLFPTSPTDRQYPHQCS
# modifications: Aspergillus niger; strain CBS 513.88 / FGSC A1513
# B11: SEQID-00418 (E. coli): nutritive polypeptide (protein)
# chain: B10 chain
# modifications: Aspergillus niger; strain CBS 513.88 / FGSC A1513
# Experiment: Intact half-life during simulated gastric fluid (SGF) digestion
# Details: SGF pH 1.5, pepsin:polypeptide 1:20 w/w, 37° C.; produced in E. coli unless otherwise noted
row,Molecule,SGF Half-life (t½) [s]
1,B1,30
2,B2,72
3,B3,24
4,B4,<600
5,B5,300
6,B6,516
7,B7,264
8,B8,18
9,B9,12
10,B10,12
11,B11,30

# Experiment: Thermostability, ProteoStat Thermal Shift Stability Kit, temperature of aggregation
# Assay type: physicochemical
# Details: pH 7.1; heated 25° C. to 95° C.; NS = protein not soluble
# Method: Thermostability. The thermostability of proteins in a buffer cocktail of Citric Acid and Dibasic Sodium Phosphate over a pH range of 2.8 to 7.1 (preparation described above in Table E31B) was determined using the ProteoStat® Thermal Shift Stability Kit (Enzo Life Sciences) according to the manufacturer's standard protocol. Briefly, protein solutions (˜10 mg/ml) containing 1× ProteoStat TS Detection Reagent were heated from 25° C. to 95° C. at a rate of 0.5° C. per 30 sec using a real-time PCR (rtPCR) thermocycler (BioRad) equipped with a plate reader (SynergyMx, Biotek) while monitoring the fluorescence with a Texas Red filter.
row,Molecule,Tagg (pH 7.1)
1,B3,>95

# Same assay, conditions: pH 7.1; heated from 25° C. to 95° C.
row,Molecule,Tagg (pH 7.1)
1,B1,>95
